Patent US20140357577A1, “HIV Membrane Fusion Inhibitors” (priority 2011, published 2014)
Starred links: 1 amine or outer side, 2 acyl side, 3 side chain; linkers in the order of their positions; H or OH if unused. Positions of bridges follow the written chain, without caps; N, C: chain ends. *: point of attachment. pXylylene = c1cc(C[*:2])ccc1C[*:1]; Palmitoyl = CCCCCCCCCCCCCCCC(=O)*; Suc = O=C(CCC(=O)[*:2])[*:1]; Hexanoyl = CCCCCC(=O)*; Pentanoyl = CCCCC(=O)*; Butyryl = CCCC(=O)*

B1: peptide 6 (peptide)
peptide: Ac-ANYLALIEALIRAAQEQQEKNEAALR-NH2
B2: peptide 86 (peptide)
peptide: Hexanoyl-ECYLACIEELIRKAQEQQEKNEAALR-NH2
modifications: linker 2-6 via pXylylene
SMILES: CCCCCC(=O)N[C@@H](CCC(=O)O)C(=O)N[C@H]1CSCc2ccc(cc2)CSC[C@@H](C(=O)N[C@H](C(=O)N[C@@H](CCC(=O)O)C(=O)N[C@@H](CCC(=O)O)C(=O)N[C@@H](CC(C)C)C(=O)N[C@H](C(=O)N[C@@H](CCCNC(=N)N)C(=O)N[C@@H](CCCCN)C(=O)N[C@@H](C)C(=O)N[C@@H](CCC(N)=O)C(=O)N[C@@H](CCC(=O)O)C(=O)N[C@@H](CCC(N)=O)C(=O)N[C@@H](CCC(N)=O)C(=O)N[C@@H](CCC(=O)O)C(=O)N[C@@H](CCCCN)C(=O)N[C@@H](CC(N)=O)C(=O)N[C@@H](CCC(=O)O)C(=O)N[C@@H](C)C(=O)N[C@@H](C)C(=O)N[C@@H](CC(C)C)C(=O)N[C@@H](CCCNC(=N)N)C(N)=O)[C@@H](C)CC)[C@@H](C)CC)NC(=O)[C@H](C)NC(=O)[C@H](CC(C)C)NC(=O)[C@H](Cc2ccc(O)cc2)NC1=O
B3: peptide 92 (peptide)
peptide: Pentanoyl-ECYLCLIEELIRKAQEQQEKNEAALR-NH2
modifications: linker 2-5 via pXylylene
SMILES: CCCCC(=O)N[C@@H](CCC(=O)O)C(=O)N[C@H]1CSCc2ccc(cc2)CSC[C@@H](C(=O)N[C@@H](CC(C)C)C(=O)N[C@H](C(=O)N[C@@H](CCC(=O)O)C(=O)N[C@@H](CCC(=O)O)C(=O)N[C@@H](CC(C)C)C(=O)N[C@H](C(=O)N[C@@H](CCCNC(=N)N)C(=O)N[C@@H](CCCCN)C(=O)N[C@@H](C)C(=O)N[C@@H](CCC(N)=O)C(=O)N[C@@H](CCC(=O)O)C(=O)N[C@@H](CCC(N)=O)C(=O)N[C@@H](CCC(N)=O)C(=O)N[C@@H](CCC(=O)O)C(=O)N[C@@H](CCCCN)C(=O)N[C@@H](CC(N)=O)C(=O)N[C@@H](CCC(=O)O)C(=O)N[C@@H](C)C(=O)N[C@@H](C)C(=O)N[C@@H](CC(C)C)C(=O)N[C@@H](CCCNC(=N)N)C(N)=O)[C@@H](C)CC)[C@@H](C)CC)NC(=O)[C@H](CC(C)C)NC(=O)[C@H](Cc2ccc(O)cc2)NC1=O
B4: peptide 88 (peptide)
peptide: Suc-ECYLRCIEELIRKAQEQQEKNEAALRGSGK(Palmitoyl)-NH2
modifications: linker 2-6 via pXylylene
SMILES: CCCCCCCCCCCCCCCC(=O)NCCCC[C@H](NC(=O)CNC(=O)[C@H](CO)NC(=O)CNC(=O)[C@H](CCCNC(=N)N)NC(=O)[C@H](CC(C)C)NC(=O)[C@H](C)NC(=O)[C@H](C)NC(=O)[C@H](CCC(=O)O)NC(=O)[C@H](CC(N)=O)NC(=O)[C@H](CCCCN)NC(=O)[C@H](CCC(=O)O)NC(=O)[C@H](CCC(N)=O)NC(=O)[C@H](CCC(N)=O)NC(=O)[C@H](CCC(=O)O)NC(=O)[C@H](CCC(N)=O)NC(=O)[C@H](C)NC(=O)[C@H](CCCCN)NC(=O)[C@H](CCCNC(=N)N)NC(=O)[C@@H](NC(=O)[C@H](CC(C)C)NC(=O)[C@H](CCC(=O)O)NC(=O)[C@H](CCC(=O)O)NC(=O)[C@@H](NC(=O)[C@@H]1CSCc2ccc(cc2)CSC[C@H](NC(=O)[C@H](CCC(=O)O)NC(=O)CCC(=O)O)C(=O)N[C@@H](Cc2ccc(O)cc2)C(=O)N[C@@H](CC(C)C)C(=O)N[C@@H](CCCNC(=N)N)C(=O)N1)[C@@H](C)CC)[C@@H](C)CC)C(N)=O
B5: peptide 89 (peptide)
peptide: Ac-ACYAACIEALIRAAQEQQEKNEAALR-NH2
modifications: linker 2-6 via 1,4‑dimethylnaphthyl
B6: peptide 8 (peptide)
peptide: Ac-ENYLALIEALIRAAQEQQEKNEAALR-NH2
B7: peptide 85 (peptide)
peptide: Butyryl-ECYLACIEELIRKAQEQQEKNEAALR-NH2
modifications: linker 2-6 via pXylylene
SMILES: CCCC(=O)N[C@@H](CCC(=O)O)C(=O)N[C@H]1CSCc2ccc(cc2)CSC[C@@H](C(=O)N[C@H](C(=O)N[C@@H](CCC(=O)O)C(=O)N[C@@H](CCC(=O)O)C(=O)N[C@@H](CC(C)C)C(=O)N[C@H](C(=O)N[C@@H](CCCNC(=N)N)C(=O)N[C@@H](CCCCN)C(=O)N[C@@H](C)C(=O)N[C@@H](CCC(N)=O)C(=O)N[C@@H](CCC(=O)O)C(=O)N[C@@H](CCC(N)=O)C(=O)N[C@@H](CCC(N)=O)C(=O)N[C@@H](CCC(=O)O)C(=O)N[C@@H](CCCCN)C(=O)N[C@@H](CC(N)=O)C(=O)N[C@@H](CCC(=O)O)C(=O)N[C@@H](C)C(=O)N[C@@H](C)C(=O)N[C@@H](CC(C)C)C(=O)N[C@@H](CCCNC(=N)N)C(N)=O)[C@@H](C)CC)[C@@H](C)CC)NC(=O)[C@H](C)NC(=O)[C@H](CC(C)C)NC(=O)[C@H](Cc2ccc(O)cc2)NC1=O
B8: peptide 7 (peptide)
peptide: Suc-ANYLALIEALIRAAQEQQEKNEAALR-NH2
SMILES: CC[C@H](C)[C@H](NC(=O)[C@H](CC(C)C)NC(=O)[C@H](C)NC(=O)[C@H](CCC(=O)O)NC(=O)[C@@H](NC(=O)[C@H](CC(C)C)NC(=O)[C@H](C)NC(=O)[C@H](CC(C)C)NC(=O)[C@H](Cc1ccc(O)cc1)NC(=O)[C@H](CC(N)=O)NC(=O)[C@H](C)NC(=O)CCC(=O)O)[C@@H](C)CC)C(=O)N[C@@H](CCCNC(=N)N)C(=O)N[C@@H](C)C(=O)N[C@@H](C)C(=O)N[C@@H](CCC(N)=O)C(=O)N[C@@H](CCC(=O)O)C(=O)N[C@@H](CCC(N)=O)C(=O)N[C@@H](CCC(N)=O)C(=O)N[C@@H](CCC(=O)O)C(=O)N[C@@H](CCCCN)C(=O)N[C@@H](CC(N)=O)C(=O)N[C@@H](CCC(=O)O)C(=O)N[C@@H](C)C(=O)N[C@@H](C)C(=O)N[C@@H](CC(C)C)C(=O)N[C@@H](CCCNC(=N)N)C(N)=O
B9: peptide 91 (peptide)
peptide: Pentanoyl-ECYLRCIEELIRKAQEQQEKNEAALR-NH2
modifications: linker 2-6 via pXylylene
SMILES: CCCCC(=O)N[C@@H](CCC(=O)O)C(=O)N[C@H]1CSCc2ccc(cc2)CSC[C@@H](C(=O)N[C@H](C(=O)N[C@@H](CCC(=O)O)C(=O)N[C@@H](CCC(=O)O)C(=O)N[C@@H](CC(C)C)C(=O)N[C@H](C(=O)N[C@@H](CCCNC(=N)N)C(=O)N[C@@H](CCCCN)C(=O)N[C@@H](C)C(=O)N[C@@H](CCC(N)=O)C(=O)N[C@@H](CCC(=O)O)C(=O)N[C@@H](CCC(N)=O)C(=O)N[C@@H](CCC(N)=O)C(=O)N[C@@H](CCC(=O)O)C(=O)N[C@@H](CCCCN)C(=O)N[C@@H](CC(N)=O)C(=O)N[C@@H](CCC(=O)O)C(=O)N[C@@H](C)C(=O)N[C@@H](C)C(=O)N[C@@H](CC(C)C)C(=O)N[C@@H](CCCNC(=N)N)C(N)=O)[C@@H](C)CC)[C@@H](C)CC)NC(=O)[C@H](CCCNC(=N)N)NC(=O)[C@H](CC(C)C)NC(=O)[C@H](Cc2ccc(O)cc2)NC1=O
B10: peptide 84 (peptide)
peptide: Ac-ACYAACIEALIRAAREQQEKNEAALR-NH2
modifications: linker 2-6 via pXylylene
SMILES: CC[C@H](C)[C@H](NC(=O)[C@H](CC(C)C)NC(=O)[C@H](C)NC(=O)[C@H](CCC(=O)O)NC(=O)[C@@H](NC(=O)[C@@H]1CSCc2ccc(cc2)CSC[C@H](NC(=O)[C@H](C)NC(C)=O)C(=O)N[C@@H](Cc2ccc(O)cc2)C(=O)N[C@@H](C)C(=O)N[C@@H](C)C(=O)N1)[C@@H](C)CC)C(=O)N[C@@H](CCCNC(=N)N)C(=O)N[C@@H](C)C(=O)N[C@@H](C)C(=O)N[C@@H](CCCNC(=N)N)C(=O)N[C@@H](CCC(=O)O)C(=O)N[C@@H](CCC(N)=O)C(=O)N[C@@H](CCC(N)=O)C(=O)N[C@@H](CCC(=O)O)C(=O)N[C@@H](CCCCN)C(=O)N[C@@H](CC(N)=O)C(=O)N[C@@H](CCC(=O)O)C(=O)N[C@@H](C)C(=O)N[C@@H](C)C(=O)N[C@@H](CC(C)C)C(=O)N[C@@H](CCCNC(=N)N)C(N)=O
B11: peptide 9 (peptide)
peptide: Ac-ENYLALIEALIRAAQEQQEKNEAALL-NH2
B12: peptide 10 (peptide)
peptide: Ac-ANYLALIEELIRAAQEQQEKNEAALR-NH2
B13: peptide 90 (peptide)
peptide: Suc-ECYLACIEELIRKAQEQQEKNEAALR-NH2
modifications: linker 2-6 via pXylylene
SMILES: CC[C@H](C)[C@H](NC(=O)[C@@H]1CSCc2ccc(cc2)CSC[C@H](NC(=O)[C@H](CCC(=O)O)NC(=O)CCC(=O)O)C(=O)N[C@@H](Cc2ccc(O)cc2)C(=O)N[C@@H](CC(C)C)C(=O)N[C@@H](C)C(=O)N1)C(=O)N[C@@H](CCC(=O)O)C(=O)N[C@@H](CCC(=O)O)C(=O)N[C@@H](CC(C)C)C(=O)N[C@H](C(=O)N[C@@H](CCCNC(=N)N)C(=O)N[C@@H](CCCCN)C(=O)N[C@@H](C)C(=O)N[C@@H](CCC(N)=O)C(=O)N[C@@H](CCC(=O)O)C(=O)N[C@@H](CCC(N)=O)C(=O)N[C@@H](CCC(N)=O)C(=O)N[C@@H](CCC(=O)O)C(=O)N[C@@H](CCCCN)C(=O)N[C@@H](CC(N)=O)C(=O)N[C@@H](CCC(=O)O)C(=O)N[C@@H](C)C(=O)N[C@@H](C)C(=O)N[C@@H](CC(C)C)C(=O)N[C@@H](CCCNC(=N)N)C(N)=O)[C@@H](C)CC
B14: peptide 5 (peptide)
peptide: Ac-ANYAALIEALIRKAQEQQEKNEAALR-NH2

Biological target: gp41 of HIV-1 strain HXB2D with mutation V38A (HIV-1 strain HXB2D, UniProt P04578)
Test: cell-based or functional assay

Binder | fold change in EC50, HIV-HXB2D V38A mutant [fold]
B1 | 51
B2 | 2
B3 | 2
B4 | 1
B5 | 75
B6 | 46
B7 | 3
B8 | 33
B9 | 2
B10 | 9
B11 | 72
B12 | 50
B13 | 6
B14 | 53
